# Assay results as given in patent US8840891 (RSR, dated 2014).
# Like-named read-outs stand apart in the source and are kept apart here.
# B1: 5C9 IgG (human monoclonal autoantibody to the TSHR) (antibody, from another filing, V domains shown)
# VH: EVQLVESGGGLIQPGGSLRLSCAASGFTVSSNYMSWVRQAPGKGLEWVSVTYSGGSTSYADSVKGRFTISRDNSKNTLYLQMNSLRAEDTAVYYCARGGRYCSSISCYARSGCDYWGQGTLVTVSS
# VL: AIQMTQSPSSLSASVGDRVTITCRASQSISNYLNWYQQKPGKAPKLLIYAASSLQSGVPSRFSGSGSGTDFTLTISSLQPEDFATYYCQQSYSSPSTTFGQGTKLEIK
# How the values were obtained:
# [1] = molecular target: TSHR with Thr104 mutated to Alanine (human) (UniProt P16473); test: cell-based or functional assay
# [2] = molecular target: TSHR with Arg109 mutated to Alanine (human) (UniProt P16473); test: cell-based or functional assay
# [3] = molecular target: wild type human TSHR (human) (UniProt P16473); test: cell-based or functional assay
# [4] = molecular target: TSHR with Phe134 mutated to Alanine (human) (UniProt P16473); test: cell-based or functional assay
# [5] = molecular target: wild type human TSHR (human) (UniProt P16473); test: cell-based or functional assay; remark: listed apart in the source
# [6] = molecular target: TSHR coated onto tubes (human) (UniProt P16473); test: TSHR coated tubes, competitor 125I-M22 IgG
# [7] = molecular target: TSHR coated onto tubes (human) (UniProt P16473); test: TSHR coated tubes, competitor 125I-5C9 IgG
# [8] = molecular target: TSHR with Gln235 mutated to Alanine (human) (UniProt P16473); test: cell-based or functional assay
# [9] = molecular target: wild type human TSHR (human) (UniProt P16473); test: cell-based or functional assay; remark: listed apart in the source
# [10] = molecular target: TSHR coated on ELISA plate wells (RSR Ltd) (human) (UniProt P16473); test: ELISA on TSHR-coated wells, 5C9 IgG-biotin binding with HBD pool (no competitor)
# [11] = molecular target: wild type human TSHR (thyrotropin receptor) expressed on CHO cells (human) (UniProt P16473); test: cell-based or functional assay
# [12] = molecular target: TSHR with Glu178 mutated to Alanine expressed on CHO cells (human) (UniProt P16473); test: cell-based or functional assay
# [13] = molecular target: wild type human TSHR (thyrotropin receptor) expressed on CHO cells (human) (UniProt P16473); test: cell-based or functional assay; remark: listed apart in the source
# [14] = molecular target: TSHR with His105 mutated to Alanine expressed on CHO cells (human) (UniProt P16473); test: cell-based or functional assay
# [15] = molecular target: wild type human TSHR (thyrotropin receptor) expressed on CHO cells (human) (UniProt P16473); test: cell-based or functional assay; remark: listed apart in the source
# [16] = molecular target: TSHR with Lys209 mutated to Alanine expressed on CHO cells (human) (UniProt P16473); test: cell-based or functional assay
molecule,measurement,setting,value
5C9 IgG (antibody),Mutated/wild type (%); 5C9 0.01 µg/mL + TSH,[1],95%
same,Mutated/wild type (%); 5C9 0.1 µg/mL + TSH,[1],134%
same,Mutated/wild type (%); 5C9 1.0 µg/mL + TSH,[1],168%
same,Mutated/wild type (%); 5C9 10 µg/mL + TSH,[1],172%
same,Mutated/wild type (%); 5C9 100 µg/mL + TSH,[1],140%
same,Mutated/wild type (%); 5C9 100 µg/mL only,[1],135%
same,cyclic AMP; 5C9 0.01 µg/mL + TSH (fmol/cell well),[1],11700
same,cyclic AMP; 5C9 0.1 µg/mL + TSH (fmol/cell well),[1],9510
same,cyclic AMP; 5C9 1.0 µg/mL + TSH (fmol/cell well),[1],6200
same,cyclic AMP; 5C9 10 µg/mL + TSH (fmol/cell well),[1],3090
same,cyclic AMP; 5C9 100 µg/mL + TSH (fmol/cell well),[1],3110
same,cyclic AMP; 5C9 100 µg/mL only (fmol/cell well),[1],264
same,Mutated/wild type (%); 5C9 0.01 µg/mL + TSH,[2],89%
same,Mutated/wild type (%); 5C9 0.1 µg/mL + TSH,[2],43%
same,Mutated/wild type (%); 5C9 1.0 µg/mL + TSH,[2],69%
same,Mutated/wild type (%); 5C9 10 µg/mL + TSH,[2],117%
same,Mutated/wild type (%); 5C9 100 µg/mL + TSH,[2],46%
same,Mutated/wild type (%); 5C9 100 µg/mL only,[2],147%
same,cyclic AMP; 5C9 0.01 µg/mL + TSH (fmol/cell well),[2],9650
same,cyclic AMP; 5C9 0.1 µg/mL + TSH (fmol/cell well),[2],1720
same,cyclic AMP; 5C9 1.0 µg/mL + TSH (fmol/cell well),[2],827
same,cyclic AMP; 5C9 10 µg/mL + TSH (fmol/cell well),[2],827
same,cyclic AMP; 5C9 100 µg/mL + TSH (fmol/cell well),[2],561
same,cyclic AMP; 5C9 100 µg/mL only (fmol/cell well),[2],335
same,cyclic AMP; 5C9 0.01 µg/mL + TSH (fmol/cell well),[3],10800
same,cyclic AMP; 5C9 0.1 µg/mL + TSH (fmol/cell well),[3],4010
same,cyclic AMP; 5C9 1.0 µg/mL + TSH (fmol/cell well),[3],1210
same,cyclic AMP; 5C9 10 µg/mL + TSH (fmol/cell well),[3],706
same,cyclic AMP; 5C9 100 µg/mL + TSH (fmol/cell well),[3],1230
same,cyclic AMP; 5C9 100 µg/mL only (fmol/cell well),[3],228
same,Mutated/wild type (%); 5C9 0.01 µg/mL + TSH,[4],117%
same,Mutated/wild type (%); 5C9 0.1 µg/mL + TSH,[4],73%
same,Mutated/wild type (%); 5C9 1.0 µg/mL + TSH,[4],43%
same,Mutated/wild type (%); 5C9 10 µg/mL + TSH,[4],44%
same,Mutated/wild type (%); 5C9 100 µg/mL + TSH,[4],77%
same,Mutated/wild type (%); 5C9 100 µg/mL only,[4],159%
same,cyclic AMP; 5C9 0.01 µg/mL + TSH (fmol/cell well),[4],15900
same,cyclic AMP; 5C9 0.1 µg/mL + TSH (fmol/cell well),[4],6370
same,cyclic AMP; 5C9 1.0 µg/mL + TSH (fmol/cell well),[4],1940
same,cyclic AMP; 5C9 10 µg/mL + TSH (fmol/cell well),[4],1060
same,cyclic AMP; 5C9 100 µg/mL + TSH (fmol/cell well),[4],1070
same,cyclic AMP; 5C9 100 µg/mL only (fmol/cell well),[4],337
same,cyclic AMP; 5C9 0.01 µg/mL + TSH (fmol/cell well),[5],13600
same,cyclic AMP; 5C9 0.1 µg/mL + TSH (fmol/cell well),[5],8700
same,cyclic AMP; 5C9 1.0 µg/mL + TSH (fmol/cell well),[5],4540
same,cyclic AMP; 5C9 10 µg/mL + TSH (fmol/cell well),[5],2390
same,cyclic AMP; 5C9 100 µg/mL + TSH (fmol/cell well),[5],1390
same,cyclic AMP; 5C9 100 µg/mL only (fmol/cell well),[5],212
same,% inhib of 125I-M22 IgG binding at 0.01 µg/mL,[6],5%
same,% inhib of 125I-M22 IgG binding at 0.1 µg/mL,[6],6%
same,% inhib of 125I-M22 IgG binding at 1 µg/mL,[6],14%
same,% inhib of 125I-M22 IgG binding at 10 µg/mL,[6],22%
same,% inhib of 125I-M22 IgG binding at 100 µg/mL,[6],53%
same,% inhib of 125I-5C9 IgG binding at 0.01 µg/mL,[7],0%
same,% inhib of 125I-5C9 IgG binding at 0.1 µg/mL,[7],10%
same,% inhib of 125I-5C9 IgG binding at 1 µg/mL,[7],27%
same,% inhib of 125I-5C9 IgG binding at 10 µg/mL,[7],42%
same,% inhib of 125I-5C9 IgG binding at 100 µg/mL,[7],65.5%
same,Mutated/wild type (%); 5C9 0.01 µg/mL + TSH,[8],244%
same,Mutated/wild type (%); 5C9 0.1 µg/mL + TSH,[8],96%
same,Mutated/wild type (%); 5C9 1.0 µg/mL + TSH,[8],95%
same,Mutated/wild type (%); 5C9 10 µg/mL + TSH,[8],192%
same,Mutated/wild type (%); 5C9 100 µg/mL + TSH,[8],97%
same,Mutated/wild type (%); 5C9 100 µg/mL only,[8],215%
same,cyclic AMP; 5C9 0.01 µg/mL + TSH (fmol/cell well),[8],17500
same,cyclic AMP; 5C9 0.1 µg/mL + TSH (fmol/cell well),[8],7440
same,cyclic AMP; 5C9 1.0 µg/mL + TSH (fmol/cell well),[8],2420
same,cyclic AMP; 5C9 10 µg/mL + TSH (fmol/cell well),[8],1020
same,cyclic AMP; 5C9 100 µg/mL + TSH (fmol/cell well),[8],727
same,cyclic AMP; 5C9 100 µg/mL only (fmol/cell well),[8],256
same,cyclic AMP; 5C9 0.01 µg/mL + TSH (fmol/cell well),[9],7180
same,cyclic AMP; 5C9 0.1 µg/mL + TSH (fmol/cell well),[9],7780
same,cyclic AMP; 5C9 1.0 µg/mL + TSH (fmol/cell well),[9],2540
same,cyclic AMP; 5C9 10 µg/mL + TSH (fmol/cell well),[9],532
same,cyclic AMP; 5C9 100 µg/mL + TSH (fmol/cell well),[9],747
same,cyclic AMP; 5C9 100 µg/mL only (fmol/cell well),[9],119
B1,Abs 450 nm,[10],2.42 Abs 450 nm
same,Cyclic AMP produced; 5C9 0.01 µg/mL + TSH (fmol/cell well),[11],12600
same,Cyclic AMP produced; 5C9 0.1 µg/mL + TSH (fmol/cell well),[11],4350
same,Cyclic AMP produced; 5C9 1.0 µg/mL + TSH (fmol/cell well),[11],688
same,Cyclic AMP produced; 5C9 10 µg/mL + TSH (fmol/cell well),[11],630
same,Cyclic AMP produced; 5C9 100 µg/mL + TSH (fmol/cell well),[11],712
same,Cyclic AMP produced; 5C9 100 µg/mL only (fmol/cell well),[11],196
same,Cyclic AMP produced; 5C9 0.01 µg/mL + TSH (fmol/cell well),[12],8170
same,Cyclic AMP produced; 5C9 0.1 µg/mL + TSH (fmol/cell well),[12],7310
same,Cyclic AMP produced; 5C9 1.0 µg/mL + TSH (fmol/cell well),[12],3570
same,Cyclic AMP produced; 5C9 10 µg/mL + TSH (fmol/cell well),[12],1900
same,Cyclic AMP produced; 5C9 100 µg/mL + TSH (fmol/cell well),[12],894
same,Cyclic AMP produced; 5C9 100 µg/mL only (fmol/cell well),[12],134
same,Mutated/wild type (%); 5C9 0.01 µg/mL + TSH,[12],65%
same,Mutated/wild type (%); 5C9 0.1 µg/mL + TSH,[12],168%
same,Mutated/wild type (%); 5C9 1.0 µg/mL + TSH,[12],519%
same,Mutated/wild type (%); 5C9 10 µg/mL + TSH,[12],302%
same,Mutated/wild type (%); 5C9 100 µg/mL + TSH,[12],126%
same,Mutated/wild type (%); 5C9 100 µg/mL only,[12],68%
same,Cyclic AMP produced; 5C9 0.01 µg/mL + TSH (fmol/cell well),[13],16700
same,Cyclic AMP produced; 5C9 0.1 µg/mL + TSH (fmol/cell well),[13],3510
same,Cyclic AMP produced; 5C9 1.0 µg/mL + TSH (fmol/cell well),[13],454
same,Cyclic AMP produced; 5C9 10 µg/mL + TSH (fmol/cell well),[13],289
same,Cyclic AMP produced; 5C9 100 µg/mL + TSH (fmol/cell well),[13],223
same,Cyclic AMP produced; 5C9 100 µg/mL only (fmol/cell well),[13],234
same,Cyclic AMP produced; 5C9 0.01 µg/mL + TSH (fmol/cell well),[14],24200
same,Cyclic AMP produced; 5C9 0.1 µg/mL + TSH (fmol/cell well),[14],2870
same,Cyclic AMP produced; 5C9 1.0 µg/mL + TSH (fmol/cell well),[14],561
same,Cyclic AMP produced; 5C9 10 µg/mL + TSH (fmol/cell well),[14],434
same,Cyclic AMP produced; 5C9 100 µg/mL + TSH (fmol/cell well),[14],134
same,Cyclic AMP produced; 5C9 100 µg/mL only (fmol/cell well),[14],520
same,Mutated/wild type (%); 5C9 0.01 µg/mL + TSH,[14],145%
same,Mutated/wild type (%); 5C9 0.1 µg/mL + TSH,[14],82%
same,Mutated/wild type (%); 5C9 1.0 µg/mL + TSH,[14],124%
same,Mutated/wild type (%); 5C9 10 µg/mL + TSH,[14],150%
same,Mutated/wild type (%); 5C9 100 µg/mL + TSH,[14],60%
same,Mutated/wild type (%); 5C9 100 µg/mL only,[14],222%
same,Cyclic AMP produced; 5C9 0.01 µg/mL + TSH (fmol/cell well),[15],15400
same,Cyclic AMP produced; 5C9 0.1 µg/mL + TSH (fmol/cell well),[15],4700
same,Cyclic AMP produced; 5C9 1.0 µg/mL + TSH (fmol/cell well),[15],1180
same,Cyclic AMP produced; 5C9 10 µg/mL + TSH (fmol/cell well),[15],984
same,Cyclic AMP produced; 5C9 100 µg/mL + TSH (fmol/cell well),[15],602
same,Cyclic AMP produced; 5C9 100 µg/mL only (fmol/cell well),[15],272
same,Cyclic AMP produced; 5C9 0.01 µg/mL + TSH (fmol/cell well),[16],5960
same,Cyclic AMP produced; 5C9 0.1 µg/mL + TSH (fmol/cell well),[16],278
same,Cyclic AMP produced; 5C9 1.0 µg/mL + TSH (fmol/cell well),[16],360
same,Cyclic AMP produced; 5C9 10 µg/mL + TSH (fmol/cell well),[16],482
same,Cyclic AMP produced; 5C9 100 µg/mL + TSH (fmol/cell well),[16],354
same,Cyclic AMP produced; 5C9 100 µg/mL only (fmol/cell well),[16],280
same,Mutated/wild type (%); 5C9 0.01 µg/mL + TSH,[16],39%
same,Mutated/wild type (%); 5C9 0.1 µg/mL + TSH,[16],6%
same,Mutated/wild type (%); 5C9 1.0 µg/mL + TSH,[16],30%
same,Mutated/wild type (%); 5C9 10 µg/mL + TSH,[16],49%
same,Mutated/wild type (%); 5C9 100 µg/mL + TSH,[16],59%
same,Mutated/wild type (%); 5C9 100 µg/mL only,[16],103%
